What was measured:
[1] = target: Pfs25-IMX313 (HEK293 cells, pENTR4-LPTOS shuttle plasmid) (Plasmodium falciparum | chicken) (UniProt P13829); assay: non-reducing SDS-PAGE with western blot; 15 μL supernatant of transfected HEK293 cells per lane, reduced and non-reduced conditions, detected with anti-Pfs25 mAb 4B7
[2] = target: Pfs25-IMX313 protein-nanoparticle (P. pastoris) (Plasmodium falciparum | chicken) (UniProt P13829); assay: non-reducing SDS-PAGE with western blot; protein purified from P. pastoris supernatant, 500 ng per lane, reduced and non-reduced conditions, detected with anti-Pfs25 mAb 4B7

| Substance | stoichiometry N [1] | stoichiometry N [2] |
| --- | --- | --- |
| Pfs25-IMX313 (HEK293 cells, pENTR4-LPTOS shuttle plasmid) (from UniProt P13829 22-193) | 7 | – |
| Pfs25-IMX313 protein-nanoparticle (P. pastoris) (from UniProt P13829 22-193) | – | 7 |

Source: paper PMC4705524
